Assay results as given in the Human Domainome abundance scans (Beltran et al. 2025).
± gives the uncertainty stated by the source.

B1: Connector enhancer of kinase suppressor of ras 2, residues 9 to 71; numbered along this chain, Q8WXI2 (parent)
chain: SKWSPSQVVDWMKGLDDCLQQYIKNFEREKISGDQLLRITHQELEDLGVSRIGHQELILEAVD

Variants of: B1
Assay: abundance fitness (aPCA) (normalised: wild type 0, dead -1); higher = more abundant; growth selection in yeast, the domain comes from the species named
Settings: Homo sapiens

For S32F, which abundance fitness is on record?
Its abundance fitness is -0.493 ± 0.041.

With S32N as the variant, how does the abundance fitness read?
Its abundance fitness is 0.024 ± 0.043.

Which abundance fitness does the source give for S32A here?
Its abundance fitness is -0.077 ± 0.03.

With S32V as the variant, how does the abundance fitness read?
Its abundance fitness is -0.475 ± 0.037.

Which abundance fitness does the source give for S32R here?
Its abundance fitness is -0.142 ± 0.022.

Which abundance fitness does the source give for S32L here?
Its abundance fitness is -0.706 ± 0.039.

For K30S, which abundance fitness is on record?
Its abundance fitness is -0.087 ± 0.027.

Which abundance fitness does the source give for K30D here?
Its abundance fitness is -0.225 ± 0.035.

Which abundance fitness does the source give for K30V here?
Its abundance fitness is -0.519 ± 0.031.

For K30C, which abundance fitness is on record?
The abundance fitness was -0.097 ± 0.028.

For K30W, which abundance fitness is on record?
Its abundance fitness is -0.572 ± 0.063.

For K30Q, which abundance fitness is on record?
Its abundance fitness is -0.036 ± 0.037.

For S1A, which abundance fitness is on record?
The abundance fitness was -0.2 ± 0.046.

With L44H as the variant, how does the abundance fitness read?
The abundance fitness was -0.914 ± 0.089.

Which abundance fitness does the source give for L44W here?
Its abundance fitness is -0.964 ± 0.06.

With L44K as the variant, how does the abundance fitness read?
The abundance fitness was -0.791 ± 0.068.

With I39H as the variant, how does the abundance fitness read?
The abundance fitness was -0.65 ± 0.071.

Which abundance fitness does the source give for I39M here?
The abundance fitness was 0.009 ± 0.034.

Which abundance fitness does the source give for I39C here?
The abundance fitness was -0.416 ± 0.052.

With I39R as the variant, how does the abundance fitness read?
Its abundance fitness is -0.717 ± 0.03.

With G53H as the variant, how does the abundance fitness read?
The abundance fitness was -0.015 ± 0.048.

For Q55I, which abundance fitness is on record?
Its abundance fitness is -0.281 ± 0.042.

With Q55E as the variant, how does the abundance fitness read?
The abundance fitness was -0.954 ± 0.097.

For Q55Y, which abundance fitness is on record?
Its abundance fitness is -1.02 ± 0.16.

Which abundance fitness does the source give for F26P here?
The abundance fitness was -0.592 ± 0.063.

With F26T as the variant, how does the abundance fitness read?
The abundance fitness was -0.774 ± 0.069.

With F26R as the variant, how does the abundance fitness read?
Its abundance fitness is -0.867 ± 0.039.

For F26M, which abundance fitness is on record?
The abundance fitness was -0.709 ± 0.062.

For F26A, which abundance fitness is on record?
Its abundance fitness is -0.824 ± 0.041.

With F26H as the variant, how does the abundance fitness read?
Its abundance fitness is -0.929 ± 0.081.

For F26K, which abundance fitness is on record?
Its abundance fitness is -0.852 ± 0.027.

With L15D as the variant, how does the abundance fitness read?
Its abundance fitness is -0.702 ± 0.05.

For L15E, which abundance fitness is on record?
Its abundance fitness is -0.371 ± 0.027.

With L15H as the variant, how does the abundance fitness read?
Its abundance fitness is -0.781 ± 0.067.

For L15G, which abundance fitness is on record?
Its abundance fitness is -0.675 ± 0.044.

For L15N, which abundance fitness is on record?
Its abundance fitness is -0.512 ± 0.051.

For M12F, which abundance fitness is on record?
The abundance fitness was -0.096 ± 0.035.

With M12Q as the variant, how does the abundance fitness read?
Its abundance fitness is -1.06 ± 0.087.

For M12I, which abundance fitness is on record?
The abundance fitness was -0.165 ± 0.031.

Which abundance fitness does the source give for M12A here?
The abundance fitness was -0.658 ± 0.037.

Which abundance fitness does the source give for M12R here?
The abundance fitness was -1.01 ± 0.052.

For M12Y, which abundance fitness is on record?
Its abundance fitness is -0.386 ± 0.051.

Which abundance fitness does the source give for M12V here?
Its abundance fitness is -0.266 ± 0.024.

With L59R as the variant, how does the abundance fitness read?
Its abundance fitness is -0.363 ± 0.028.

Which abundance fitness does the source give for L59I here?
Its abundance fitness is -0.241 ± 0.048.

With L59K as the variant, how does the abundance fitness read?
Its abundance fitness is -0.232 ± 0.034.

Which abundance fitness does the source give for L59D here?
The abundance fitness was -0.594 ± 0.042.

With L19I as the variant, how does the abundance fitness read?
The abundance fitness was -0.102 ± 0.066.

For L19N, which abundance fitness is on record?
The abundance fitness was -0.593 ± 0.054.

With L19V as the variant, how does the abundance fitness read?
Its abundance fitness is -0.112 ± 0.026.

With L19F as the variant, how does the abundance fitness read?
Its abundance fitness is -0.548 ± 0.052.

For L19H, which abundance fitness is on record?
Its abundance fitness is -0.568 ± 0.061.

For L19G, which abundance fitness is on record?
Its abundance fitness is -0.68 ± 0.027.

Which abundance fitness does the source give for L19P here?
The abundance fitness was -0.602 ± 0.044.

Which abundance fitness does the source give for E45L here?
The abundance fitness was -0.045 ± 0.026.

For E45Q, which abundance fitness is on record?
The abundance fitness was -0.007 ± 0.047.

With E45S as the variant, how does the abundance fitness read?
Its abundance fitness is -0.017 ± 0.02.

With E45F as the variant, how does the abundance fitness read?
Its abundance fitness is -0.033 ± 0.043.

With L57S as the variant, how does the abundance fitness read?
The abundance fitness was -0.298 ± 0.033.

Which abundance fitness does the source give for L57V here?
The abundance fitness was -0.439 ± 0.033.

For R28N, which abundance fitness is on record?
Its abundance fitness is -0.067 ± 0.051.

For R28W, which abundance fitness is on record?
The abundance fitness was -0.638 ± 0.044.

With R28L as the variant, how does the abundance fitness read?
The abundance fitness was -0.15 ± 0.023.

For R28T, which abundance fitness is on record?
Its abundance fitness is -0.058 ± 0.032.

Which abundance fitness does the source give for R28Y here?
The abundance fitness was -0.28 ± 0.069.

With R28A as the variant, how does the abundance fitness read?
Its abundance fitness is -0.052 ± 0.026.

Which abundance fitness does the source give for R28I here?
The abundance fitness was -0.099 ± 0.063.

With R28E as the variant, how does the abundance fitness read?
Its abundance fitness is -0.1 ± 0.043.

With V9F as the variant, how does the abundance fitness read?
The abundance fitness was -0.764 ± 0.081.

Which abundance fitness does the source give for V9W here?
Its abundance fitness is -0.863 ± 0.049.

Which abundance fitness does the source give for V9C here?
The abundance fitness was -0.054 ± 0.039.

Which abundance fitness does the source give for I52E here?
Its abundance fitness is -0.058 ± 0.042.

Which abundance fitness does the source give for I52Y here?
Its abundance fitness is -0.067 ± 0.041.

For I52N, which abundance fitness is on record?
The abundance fitness was -0.139 ± 0.057.

With I52D as the variant, how does the abundance fitness read?
Its abundance fitness is -0.123 ± 0.04.

For Y22D, which abundance fitness is on record?
Its abundance fitness is -0.571 ± 0.037.

With Y22K as the variant, how does the abundance fitness read?
Its abundance fitness is -0.578 ± 0.091.

With Y22P as the variant, how does the abundance fitness read?
The abundance fitness was -0.753 ± 0.08.

For Y22N, which abundance fitness is on record?
Its abundance fitness is -0.747 ± 0.062.

With D17Y as the variant, how does the abundance fitness read?
Its abundance fitness is -0.203 ± 0.054.

With D17L as the variant, how does the abundance fitness read?
The abundance fitness was -0.446 ± 0.027.

Which abundance fitness does the source give for D17G here?
Its abundance fitness is -0.104 ± 0.032.

Which abundance fitness does the source give for D17W here?
The abundance fitness was -0.497 ± 0.045.

Which abundance fitness does the source give for D17I here?
The abundance fitness was -0.4 ± 0.043.
